Measurements reported in publication PMC4858744, “Bifunctional CYP81AA proteins catalyse identical hydroxylations but alternative regioselective phenol couplings in plant xanthone biosynthesis” (Nature Communications, 2016).

Tested on: T1, NC(=O)C1=CN([C@@H]2O[C@H](COP(=O)(O)OP(=O)(O)OC[C@H]3O[C@@H](n4cnc5c(N)ncnc54)[C@H](OP(=O)(O)O)[C@@H]3O)[C@@H](O)[C@H]2O)C=CC1
T1 construct: full-length, 712 residues, pESC-URA MCS2, yeast (S. cerevisiae INVSc1) microsomes
Assay: cytochrome c reduction, yeast microsomes
Type: biochemical, Hypericum calycinum
Conditions: electron acceptor cytochrome c

Chain of HcCPR2 (Hypericum calycinum) (chain, as listed by the source): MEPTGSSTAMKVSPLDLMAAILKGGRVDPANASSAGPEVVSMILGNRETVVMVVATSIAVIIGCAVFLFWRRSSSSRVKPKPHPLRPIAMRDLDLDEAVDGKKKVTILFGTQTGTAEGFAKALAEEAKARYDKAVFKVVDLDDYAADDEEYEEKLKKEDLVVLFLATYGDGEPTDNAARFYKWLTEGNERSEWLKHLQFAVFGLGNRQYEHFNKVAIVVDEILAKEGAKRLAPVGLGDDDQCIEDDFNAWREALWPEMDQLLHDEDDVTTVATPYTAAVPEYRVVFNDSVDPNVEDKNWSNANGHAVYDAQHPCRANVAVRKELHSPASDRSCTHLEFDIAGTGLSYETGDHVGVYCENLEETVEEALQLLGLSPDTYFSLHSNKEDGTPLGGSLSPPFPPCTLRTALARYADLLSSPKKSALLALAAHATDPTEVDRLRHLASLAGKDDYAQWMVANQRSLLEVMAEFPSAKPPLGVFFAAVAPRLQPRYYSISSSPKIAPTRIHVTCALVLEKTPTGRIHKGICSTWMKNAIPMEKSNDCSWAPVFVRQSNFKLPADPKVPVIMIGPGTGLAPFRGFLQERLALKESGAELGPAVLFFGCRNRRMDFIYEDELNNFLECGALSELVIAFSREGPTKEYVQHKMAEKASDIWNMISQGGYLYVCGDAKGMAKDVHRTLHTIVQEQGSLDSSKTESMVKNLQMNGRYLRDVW

Q: HcCPR2 (Hypericum calycinum) was tested. Which Km did it give?
A: Its Km is 43.9 ± 6.5 µM.
